Assay [1] addresses smooth muscle tropomyosin, purified α/β heterodimer of chicken gizzard Tpm1.4 and Tpm2.1 (chicken). Nature of the assay: SPR; BIAcore X100; Tpm amine-coupled to CM5 chip; SMTNL1-TMB 0.12-10 uM injected; 20 mM HEPES pH 7.5, 100 mM KCl, 1 mM DTT, 0.005% Tween-20; 25 C; n = 3.
For assay [2] the target is unchanged. In words: pull-down; Tpm covalently bound to CNBr-activated Sepharose (40 uL); 200 ug SMTNL1-TMB; 20 mM Tris-HCl pH 7.5, 0.1% beta-mercaptoethanol, 2 h at 4 C; washed with 150 mM NaCl; Coomassie stain, densitometry.
For assay [3], the target named is SMTNL1-TMB, Tpm-binding region of smoothelin-like 1 protein (amino acids 195-459), unphosphorylated (UniProt Q99LM3). In words: pull-down; competition, apo-CaM: SMTNL1-TMB premixed with Tpm (equimolar or other molar ratios) for 1 h at 4 C, then added to CaM-Sepharose with 1 mM EDTA.

In the case of “SMTNL1-TMB phosphorylated at Ser301 with PKA (from UniProt Q99LM3 195-459) (domain or fragment)”, in assay [1], the dissociation constant (Kd) was 320 nM. For the same substance, in assay [2], the fold recovered against unphosphorylated SMTNL1-TMB came to 2 fold.

In assay [1], “SMTNL1-TMB, Tpm-binding region of smoothelin-like 1 protein (amino acids 195-459), unphosphorylated (from UniProt Q99LM3 195-459) (domain or fragment)” returned a Kd of 3000 nM.

In the case of “smooth muscle tropomyosin, purified α/β heterodimer of chicken gizzard Tpm1.4 and Tpm2.1 (complex)”, the percent reduction of SMTNL1-TMB binding to apo-CaM-Sepharose by equimolar Tpm in assay [3] turned out to be 60%.
